Source: publication PMC7364221

target: T1, ClbR (Escherichia coli Nissle 1917) (UniProt Q0P7J1); assay: EMSA; settings: pH and temperature not stated
T1 sequence: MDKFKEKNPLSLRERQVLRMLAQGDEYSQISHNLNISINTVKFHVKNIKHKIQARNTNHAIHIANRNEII

Row | Sequence | binding
1 | TGCTCATGGTAGTTACTCCTTTTCTTATCCTTTAAGGAATGGAATAAAAACCCCTGTTGACTTGGTGTTAGCGGTAACTGCTTACGCGTGTCCATCTTATTACATGGAAAATCTCCAGAGGTATTATCCATAACCATCACCTTATTATCGGATTTATAGATTATTTAACAT (double strand) [probe 7 (clbB upstream, 171 bp)] | no binding
2 | TGCTCATGGTAGTTACTCCTTTTCTTATCCTTTAAGGAATGGAATAAAAACCCCTGTTGACTTGGTGTTAGCGGTAACTGCTTACGCGTGTCCATCTTATTACATGGAAAATCTCCAGAGGTATTATCCATAACCATCACCTTATTATCGGATTTATAGATTATTTAACATGATTATTCTAAATGG (double strand) [probe 12 (clbB upstream, 186 bp)] | no binding
3 | TGCGGATAGGTGTGCCATTTAGAATAATCATGTTAAATAATCTATAAATCCGATAATAAGGTGATGGTTATGGATAATACCTCTGGAGATTTTCCATGTAATAAGATGGACACGCGTAAGCAGTTACCGCTAACACCAAGTCAACAGGGGTTTTTATTCCATTCCTTAAAGGATAAGAAAAGGAGTAACTACCATGAGCA (double strand) [probe 11 (clbB upstream, 200 bp)] | no binding
4 | CCAGTCACGACGTTGTAATACGACGGCCAGAGAATCCGTAATCATAGTCATAGCTGTATCCTGTGTGAAATTGTTATCCGCTCATAATTTCACACAACATACGAGCCGGACACATAGAGTGTAAAGACTGGGGTGCCTAATGAGTGAGCTGACTCACATTAATTGTGTTGCGCTCACTGCCCGCTTTCCAGTCGGGAAACTTGTCGTGCCAGCTGCATTAATGAATCGG (double strand) [lacZ promoter probe (229 bp)] | no binding
5 | GAGATTTTCCATGTAATAAGATGGACACGCGTAAGCAGTTACCGCTAACACCAAGTCAACAGGGGTTTTTATTCCATTCCTTAAAGGATAAGAAAAGGAGTAACTACCATGAGCA (double strand) [probe 8 (clbB upstream, 115 bp)] | no binding
